Measured values as given in US12319739 (F STAR DELTA, dated 2025).
One block for each binder: values may come before it.

What was measured:
hMSLN-His-Avi [1] = target: T1, hMSLN-His-Avi (human, UniProt Q13421 296-598, single biotin on the Avi tag in the biotinylated form); test: ELISA, hMSLN-His-Avi coated 1 µg/ml
T1 construct: Monomeric; also called human MSLN-His-Avi; hMSLN-Avi-His

hMSLN-His-Avi [2] = target: T1, hMSLN-His-Avi; test: SPR, hMSLN-His-Avi immobilised at 100 RU
hMSLN-His-Avi [3] = target: T1, hMSLN-His-Avi; test: SPR, hMSLN-His-Avi immobilised at 50 RU
human CEACAM-5-His-Fc = target: T2, human CEACAM-5-His-Fc (human, UniProt P06731 35-685); test: ELISA, antigen coated 1 µg/ml
T2 sequence (looked up): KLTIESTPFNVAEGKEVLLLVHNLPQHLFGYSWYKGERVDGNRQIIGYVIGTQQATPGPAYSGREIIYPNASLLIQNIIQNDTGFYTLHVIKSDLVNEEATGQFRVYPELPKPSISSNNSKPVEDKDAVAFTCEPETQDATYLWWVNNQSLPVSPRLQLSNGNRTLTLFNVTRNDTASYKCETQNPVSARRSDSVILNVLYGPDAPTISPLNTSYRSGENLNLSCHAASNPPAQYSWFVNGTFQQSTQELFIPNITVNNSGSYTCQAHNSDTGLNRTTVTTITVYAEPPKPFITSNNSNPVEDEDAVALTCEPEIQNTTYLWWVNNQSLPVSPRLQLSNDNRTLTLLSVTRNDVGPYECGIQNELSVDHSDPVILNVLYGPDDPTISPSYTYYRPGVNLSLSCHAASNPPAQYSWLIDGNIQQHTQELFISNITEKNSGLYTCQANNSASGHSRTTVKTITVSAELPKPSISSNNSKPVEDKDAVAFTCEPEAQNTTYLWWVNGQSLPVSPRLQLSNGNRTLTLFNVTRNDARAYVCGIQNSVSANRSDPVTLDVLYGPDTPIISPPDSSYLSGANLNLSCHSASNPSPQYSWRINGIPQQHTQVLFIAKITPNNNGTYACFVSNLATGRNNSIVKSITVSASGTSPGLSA
Experimental: (§1) Binding of the anti-MSLN mAbs, tested at a concentration range of 0.02 to 1000 nM (3-fold dilutions) was detected using anti-human Fab-HRP (Sigma, A0293).

human E-Cadherin = target: T3, human E-Cadherin (human, UniProt P12830 155-707); test: ELISA, antigen coated 1 µg/ml
T3 sequence (looked up): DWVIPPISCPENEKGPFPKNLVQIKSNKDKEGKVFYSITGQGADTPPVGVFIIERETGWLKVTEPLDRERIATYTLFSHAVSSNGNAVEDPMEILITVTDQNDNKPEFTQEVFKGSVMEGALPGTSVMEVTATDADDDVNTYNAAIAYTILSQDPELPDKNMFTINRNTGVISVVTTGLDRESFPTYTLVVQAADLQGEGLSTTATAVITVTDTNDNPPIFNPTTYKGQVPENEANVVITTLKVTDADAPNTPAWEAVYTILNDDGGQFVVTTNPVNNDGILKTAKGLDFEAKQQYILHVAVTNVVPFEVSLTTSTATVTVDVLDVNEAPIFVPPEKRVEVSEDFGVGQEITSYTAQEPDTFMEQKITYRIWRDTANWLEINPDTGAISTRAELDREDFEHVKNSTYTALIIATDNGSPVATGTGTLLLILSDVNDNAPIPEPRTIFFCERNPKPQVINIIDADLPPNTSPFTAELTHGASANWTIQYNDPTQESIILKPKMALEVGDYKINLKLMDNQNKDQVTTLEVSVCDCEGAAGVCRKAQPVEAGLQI
Experimental: as §1

human EpCAM-hFc = target: T4, human EpCAM-hFc (human, UniProt P16422 24-265, limits assumed); test: ELISA, antigen coated 1 µg/ml
T4 sequence (looked up): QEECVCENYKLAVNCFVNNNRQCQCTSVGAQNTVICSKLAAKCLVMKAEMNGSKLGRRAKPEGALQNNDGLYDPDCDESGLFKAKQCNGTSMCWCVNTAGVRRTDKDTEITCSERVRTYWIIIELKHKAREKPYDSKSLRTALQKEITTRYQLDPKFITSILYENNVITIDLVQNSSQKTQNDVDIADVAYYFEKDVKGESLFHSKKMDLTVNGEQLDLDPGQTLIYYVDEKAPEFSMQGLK
Experimental: as §1

human Thrombomodulin = human Thrombomodulin (human, UniProt P07204 19-515, limits assumed); test: ELISA, antigen coated 1 µg/ml
Experimental: as §1

cMSLN-His-Avi = target: T5, cMSLN-His-Avi (cynomolgus, single biotin on the Avi tag in the biotinylated form); test: SPR, mAb2 captured on Protein G, cMSLN-His-Avi in solution
T5 construct: Monomeric; also called cyno MSLN-His-Avi; cMSLN-Avi-His
T5 chain: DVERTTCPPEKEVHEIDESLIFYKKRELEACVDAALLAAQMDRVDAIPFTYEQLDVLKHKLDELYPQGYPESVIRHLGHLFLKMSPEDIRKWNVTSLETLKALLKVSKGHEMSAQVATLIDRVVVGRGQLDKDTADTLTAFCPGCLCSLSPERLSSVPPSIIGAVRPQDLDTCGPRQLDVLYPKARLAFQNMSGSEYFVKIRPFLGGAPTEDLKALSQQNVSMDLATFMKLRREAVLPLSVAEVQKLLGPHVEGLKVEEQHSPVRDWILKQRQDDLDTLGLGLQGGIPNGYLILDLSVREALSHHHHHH
Experimental: (§2) The association time was 5 min and the dissociation time was 5 min. Running buffer was HBS-EP (GE Healthcare BR100188). Flow cells were regenerated by injecting Glycine-HCl pH2.1 at a flow rate of 30 μl/min for 15 seconds. The data was analysed as described in Example 7.1.

[4] = target: human CD137 on primary human CD8+ T cells (human, UniProt Q07011 24-255); test: cell-based or functional assay
hMSLN-His-Avi [5] = target: T1, hMSLN-His-Avi; test: SPR, mAb2 captured on Protein G, hMSLN-His-Avi in solution
Experimental: as §2

hMSLN-His-Avi [6] = target: T1, hMSLN-His-Avi; test: SPR, hMSLN-His-Avi immobilised ~100 RU, mAb2 injected
Experimental: (§3) 7.1 Binding of CD137/MSLN mAb2 to Human MSLN Under Avid Conditions—Antigen Capture Method Binding of all mAb^2 to MSLN immobilised on a BIAcore chip was tested to determine the binding affinity to human MSLN under avid conditions, where a high concentration of immobilised antigen is available to allow the antibody to bind avidly. […] The association time was 5 min and the dissociation time was 10 min. Running buffer was HBS-EP (GE Healthcare BR100188). Flow cells were regenerated by injecting Glycine-HCl pH1.5 at a flow rate of 30 μl/min for 30 seconds. Data were analysed by double referencing against a flow cell which was intentionally left blank (no antigen coating). The binding kinetics were fitted with a 1:1 Langmuir model to generate binding association (k_a) and dissociation (k_d) rates. Equilibrium binding constants (K_D) were calculated by dividing the dissociation rate by the association rate for each sample. Data analysis was performed with BiaEvaluation software version 3.2.

hMSLN-His-Avi [7] = target: T1, hMSLN-His-Avi; test: ratio of SPR KDs
Experimental: as §3, §2

[8] = target: T6, endogenous cell surface human MSLN (human, UniProt Q13421 296-598); test: flow cytometry, NCI-H226 cells
T6 construct: whole, on cells; The cell line is named under assay; also called cell-surface MSLN on NCI-H226, OVCAR-3 and AsPC-1 cells
Experimental: (§4) To confirm binding to cell surface MSLN, mAb² listed in Table 9 were analysed for binding to endogenous cell surface MSLN on the human lung cancer cell line NCI-H226. In addition, and because MSLN can be found in blood in a shed soluble form, there is a risk that this circulating MSLN might affect exposure and ultimately potency of our mAb². To confirm that presence of soluble MSLN has minimal impact, additional binding experiments to NCI-H226 cells were performed in the presence of 20 nM soluble MSLN which is 10-20 times the level of soluble MSLN found to be of diagnostic value for defining malignant mesothelioma and lung cancer patients as MSLN positive (Cui et al., 2014). Briefly, NCI-H226 cells (ATCC CRL-5826) were harvested from T175 cell culture flasks using Accutase (Gibco, A11105-01).
(§5) In both cases, cells were centrifuged at 1200 rpm for 3 min and resuspended in ice cold FACS buffer made up of DPBS (Life Technologies, 14190169) and 1% BSA (Sigma-Aldrich, A7906) at 2×10⁶ cells/ml and 50 μl per well was seeded in a 96-well V-bottom plate (Costar, 3894). All antibodies tested were diluted in FACS buffer in 120 μl at a concentration range of 0.01-200 nM (4-fold dilutions). The NCI-H226 cells were then centrifuged, supernatant removed and cells resuspended in 100 μl of each mAb dilution and incubated at 4° C. for 45 min. Cells were washed twice by centrifugation with 150 μl FACS buffer, resuspended in 100 μl containing goat anti-human IgG (γ-chain specific) F(ab')2 fragment-R-Phycoerythrin antibody (Sigma, P8047) diluted 1:1000 in FACS buffer and incubated at 4° C. for 45 min. The cells were washed once with 150 μl FACS buffer and then with 150 μl DPBS, resuspended in 150 μl DPBS containing DAPI (Biotium, 40043) at 1:10.000 and read on the BDCantoII or iQue (Intellicyt).

hCD137-mFc-Avi = target: T7, hCD137-mFc-Avi (human; mouse, UniProt Q07011 24-186, one biotin on each Avi tag in the biotinylated form); test: SPR, mAb2 captured by anti-human Fab, hCD137-mFc-Avi in solution
T7 construct: also called human dimeric CD137; human CD137-mFc-Avi
Experimental: A Biacore CM5 chip was coated with anti-human Fab using a Human Fab Capture Kit (GE Healthcare 28958325) according to manufacturer's conditions, to a surface density of approximately 9000 RU. […] The association time was 5 min and the dissociation time was 5 min. Running buffer was HBS-EP. Flow cells were regenerated by injecting two repeat injections of 10 mM glycine-HCl at pH 2.1 at a flow rate of 30 μl/min for 30 seconds. Data analysis was performed as described in earlier examples (see e.g. Example 7.1).

[9] = target: T6, endogenous cell surface human MSLN; test: flow cytometry, NCI-H226 cells + 20 nM soluble MSLN
Experimental: as §4, §5

Sequence of human CD137 on primary human CD8+ T cells (Q07011 24-255): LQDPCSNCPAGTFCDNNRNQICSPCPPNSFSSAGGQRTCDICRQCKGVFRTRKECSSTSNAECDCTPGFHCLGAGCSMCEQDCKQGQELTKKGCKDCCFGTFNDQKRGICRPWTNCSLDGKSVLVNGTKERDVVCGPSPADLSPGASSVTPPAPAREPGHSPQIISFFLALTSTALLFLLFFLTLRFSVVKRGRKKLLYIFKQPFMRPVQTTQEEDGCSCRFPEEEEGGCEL
T6 sequence (Q13421 other isoform, or with tags, fused parts or gaps limits assumed): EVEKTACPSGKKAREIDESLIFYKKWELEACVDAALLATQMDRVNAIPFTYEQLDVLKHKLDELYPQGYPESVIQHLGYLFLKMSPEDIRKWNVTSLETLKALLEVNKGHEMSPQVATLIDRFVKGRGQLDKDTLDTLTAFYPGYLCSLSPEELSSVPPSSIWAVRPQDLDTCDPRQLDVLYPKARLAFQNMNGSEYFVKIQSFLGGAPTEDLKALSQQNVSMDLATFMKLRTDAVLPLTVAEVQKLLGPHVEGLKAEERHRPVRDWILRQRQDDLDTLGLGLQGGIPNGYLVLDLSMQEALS
T1 sequence (Q13421 other isoform, or with tags, fused parts or gaps): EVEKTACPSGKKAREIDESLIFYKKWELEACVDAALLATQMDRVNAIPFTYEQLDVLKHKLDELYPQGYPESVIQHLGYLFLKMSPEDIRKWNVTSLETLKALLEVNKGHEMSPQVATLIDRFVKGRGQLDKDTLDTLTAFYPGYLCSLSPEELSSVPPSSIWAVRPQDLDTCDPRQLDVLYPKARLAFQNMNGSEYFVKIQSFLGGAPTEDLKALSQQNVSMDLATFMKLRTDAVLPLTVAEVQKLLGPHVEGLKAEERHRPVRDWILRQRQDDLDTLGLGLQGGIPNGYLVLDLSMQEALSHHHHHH
Sequence of human Thrombomodulin (P07204 19-515 limits assumed): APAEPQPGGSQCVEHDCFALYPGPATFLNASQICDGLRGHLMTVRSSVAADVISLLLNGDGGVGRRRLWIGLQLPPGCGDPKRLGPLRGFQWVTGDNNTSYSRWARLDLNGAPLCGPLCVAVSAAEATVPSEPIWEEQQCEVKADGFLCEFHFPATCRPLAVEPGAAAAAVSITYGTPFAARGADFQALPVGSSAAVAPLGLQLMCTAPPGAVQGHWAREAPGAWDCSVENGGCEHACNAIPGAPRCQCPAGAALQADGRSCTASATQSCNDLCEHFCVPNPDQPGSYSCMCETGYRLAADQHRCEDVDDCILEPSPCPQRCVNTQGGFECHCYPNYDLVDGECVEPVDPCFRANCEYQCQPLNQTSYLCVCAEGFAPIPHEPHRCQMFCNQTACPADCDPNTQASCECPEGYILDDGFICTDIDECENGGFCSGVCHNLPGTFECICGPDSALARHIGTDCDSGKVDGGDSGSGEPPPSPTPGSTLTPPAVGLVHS
T7 sequence (Q07011 24-186): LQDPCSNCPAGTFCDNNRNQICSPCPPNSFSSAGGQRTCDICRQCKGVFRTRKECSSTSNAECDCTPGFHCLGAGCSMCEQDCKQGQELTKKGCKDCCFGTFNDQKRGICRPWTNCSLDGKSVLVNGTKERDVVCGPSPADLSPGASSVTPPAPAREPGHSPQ

EC50 (hMSLN-His-Avi [1]): ~0.5 nM
maximum binding signal (hMSLN-His-Avi [1]): 3
Kd (hMSLN-His-Avi [2]): 23.2 nM
Kd (hMSLN-His-Avi [3]): 26.2 nM
binding result (human CEACAM-5-His-Fc): no binding (tested: 1000 nM)
binding result (human E-Cadherin): no binding (tested: 1000 nM)
binding result (human EpCAM-hFc): no binding (tested: 1000 nM)
binding result (human Thrombomodulin): no binding (tested: 1000 nM)
B1: FS28-256 (mAb in G1-AA format) (antibody, human IgG1, V domains shown)
VH: EVQLLESGGGLVQPGGSLRLSCAASGFTFTNTYMSWVRQAPGKGLEWVSNISPTYSTTNYADSVKGRFTISRDNSKNTLYLQMNSLRAEDTAVYYCARYNSYQGGLDYWGQGTLVTVSS
VL: EIVLTQSPGTLSLSPGERATLSCRASQSVSSSYLAWYQQKPGQAPRLLIYGASSRATGIPDRFSGSGSGTDFTLTISRLEPEDFAVYYCQQSYYYPITFGQGTKVEIK

EC50 (hMSLN-His-Avi [1]): ~0.5 nM
maximum binding signal (hMSLN-His-Avi [1]): 3
Kd (hMSLN-His-Avi [2]): 29.6 nM
Kd (hMSLN-His-Avi [3]): 37 nM
binding result (human CEACAM-5-His-Fc): no binding (tested: 1000 nM)
binding result (human E-Cadherin): no binding (tested: 1000 nM)
binding result (human EpCAM-hFc): no binding (tested: 1000 nM)
binding result (human Thrombomodulin): no binding (tested: 1000 nM)
B2: FS28-185 (mAb in G1-AA format) (antibody, human IgG1, V domains shown)
VH: EVQLLESGGGLVQPGGSLRLSCAASGFTFTTSAMSWVRQAPGKGLEWVSRINPYEGETNYADSVKGRFTISRDNSKNTLYLQMNSLRAEDTAVYYCARGWSIATYYKSAMDYWGQGTLVTVSS
VL: EIVLTQSPGTLSLSPGERATLSCRASQSVSSSYLAWYQQKPGQAPRLLIYGASSRATGIPDRFSGSGSGTDFTLTISRLEPEDFAVYYCQQSSYSAPVTFGQGTKVEIKR

Kd (cMSLN-His-Avi): 239 nM
Emax (IL-2 pg/ml), NCI-H226 co-culture, Donor A [4]: 1070 pg/mL
Emax (IL-2 pg/ml), NCI-H226 co-culture, Donor B [4]: 1690 pg/mL
IL-2 release EC50, NCI-H226 co-culture, Donor A [4]: 0.04 nM
IL-2 release EC50, NCI-H226 co-culture, Donor B [4]: 0.05 nM
Kd (hMSLN-His-Avi [5]): 33.1 nM
Kd (hMSLN-His-Avi [6]): 0.39 nM
KD ratio in solution/immobilised human MSLN (hMSLN-His-Avi [7]): 85
EC50 [8]: 0.884 nM
Emax (MFI) [8]: 752000 MFI
Kd (hCD137-mFc-Avi): 1.51 nM
EC50 [9]: 3.64 nM
Emax (MFI) [9]: 799000 MFI
B3: FS22-172-003-AA/FS28-024-052 (bispecific antibody, human IgG1, kappa, L234A L235A, V domains shown)
VH: EVQLLESGGGLVQPGGSLRLSCAASGFTLSYSSMSWVRQAPGKGLEWVSFITPSTGYTHYADSVKGRFTISRDNSKNTLYLQMNSLRAEDTAVYYCARRALLFDYWGQGTLVTVSS
VL: EIVLTQSPGTLSLSPGERATLSCRASQSVSSSYLAWYQQKPGQAPRLLIYGASSRATGIPDRFSGSGSGTDFTLTISRLEPEDFAVYYCQQASSYPLTFGQGTKVEIKR
notes: IgG1 mAb^2 with LALA
